Assay results as given in the supplement of paper PMC7877785.
± gives the uncertainty stated by the source.

Experiment: self-splicing fitness, log relative to wild type (ln ratio); higher = more splicing; Tetrahymena group I intron in knt gene, E. coli kanamycin selection, DiMSum; sequences stand for … in CUCUCU…GGAGGGAAAAGUUAUCAGGCAUGCACCUGGUAGCUAGUCUUUAAACCAAUAGAUUGCAUCGGUUUAAAAGGCAAGACCGUCAAAUUGCGGGAAAGGGGUCAACAGCCGUUCAGUACCAAGUCUCAGGGGAAACUUUGAGAUGGCCUUGCAAAGGGUAUGGUAAUAAGCUGACGGACAUGGUCCUAACCACGCAGCCAAGUCCUAAGUCAACAGAUCUUCUGUUGAUAUGGAUGCAGUUCACAGACUAAAUGUCGGUCGGGGAAGAUGUAUUCUUCUCAUAAGAUAUAGUCGGACCUCUCCUUAAUGGGAGCUAGCGGAUGAAGUGAUGCAACACUGGAGCCGCUGGGAACUAAUUUGUAUGCGAAAGUAUAUUGAUUAGUUUUGGAGUACUCGUGGUCG
How it was run: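 Colonies from six replicate transformations of E. coli BL21(DE3) were pooled and amplicon-sequenced on an Illumina HiSeq 2500. The library placed an intron with all eight P1ex-region nucleotides randomised inside the knt kanamycin-resistance gene on pET-22b(+), and cells grew overnight at 37°C or 30°C on LB agar with or without 25 μg/mL kanamycin (plus 100 μg/mL carbenicillin, 50 μM IPTG, 0.2% rhamnose). Fitness is the DiMSum error-weighted combination of wild-type-normalised replicate fold changes, kanamycin versus none.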

| Sequence | self-splicing fitness (ln) (30 °C) | self-splicing fitness (ln) (37 °C) |
| --- | --- | --- |
| CCAGAGCAAUAUUACGGCCC | -2.44 ± 0.46 | -1.44 ± 0.42 |
| CCAGAGCAAUAUUACGGGAC | -2.81 ± 0.33 | – |
| CCAGAGCAAUAUUACGGGUG | -1.52 ± 0.072 | -0.654 ± 0.096 |
| CCAGAGCAAUAUUACGGUCG | -1.35 ± 0.1 | -0.448 ± 0.12 |
| CCAGAGCAAUAUUACGGUGU | -3.53 ± 0.16 | -2.7 ± 0.2 |
| CCAGAGCAAUAUUACGGUUC | -4.36 ± 0.21 | -2.38 ± 0.18 |
| CCAGAGCAAUAUUACGUGAC | -3.36 ± 0.19 | -3.93 ± 0.46 |
| CCAGAGCAAUAUUACGUGAG | -0.95 ± 0.061 | -0.428 ± 0.074 |
| CCAGAGCAAUAUUACGUGCA | -1.88 ± 0.22 | -2.54 ± 0.4 |
| CCAGAGCAAUAUUACGUUCG | -2.91 ± 0.17 | -1.64 ± 0.17 |
| CCAUAGCAAUAUUACGAAAG | -2.11 ± 0.12 | -0.18 ± 0.12 |
| CCAUAGCAAUAUUACGAACC | -1.85 ± 0.5 | – |
| CCAUAGCAAUAUUACGAAUU | -3.3 ± 0.23 | -2.51 ± 0.39 |
| CCAUAGCAAUAUUACGAGAA | -0.566 ± 0.36 | – |
| CCAUAGCAAUAUUACGAGCA | -3.11 ± 0.2 | -2.11 ± 0.23 |
| CCAUAGCAAUAUUACGCACA | -3.14 ± 0.28 | -1.45 ± 0.27 |
| CCAUAGCAAUAUUACGCGGG | -3.99 ± 0.21 | -2.87 ± 0.24 |
| CCAUAGCAAUAUUACGCUAU | – | -3.35 ± 0.37 |
| CCAUAGCAAUAUUACGGAAC | -3.26 ± 0.24 | -1.55 ± 0.27 |
| CCAUAGCAAUAUUACGGACG | -1.47 ± 0.11 | -1.21 ± 0.14 |
| CCAUAGCAAUAUUACGGAUU | -3.49 ± 0.19 | -2.96 ± 0.24 |
| CCAUAGCAAUAUUACGGCCA | -3.07 ± 0.37 | -3.3 ± 0.42 |

| Sequence | self-splicing fitness (ln) (30 °C) | self-splicing fitness (ln) (37 °C) |
| --- | --- | --- |
| CCAUAGCAAUAUUACGGGCG | -1.02 ± 0.097 | -0.644 ± 0.11 |
| CCAUAGCAAUAUUACGUAAG | -0.421 ± 0.055 | -0.575 ± 0.07 |
| CCAUAGCAAUAUUACGUCAU | -4.08 ± 0.31 | -2.69 ± 0.17 |
| CCAUAGCAAUAUUACGUGAU | -2.78 ± 0.097 | -2.76 ± 0.16 |
| CCAUAGCAAUAUUACGUGUA | -4.27 ± 0.25 | -2.71 ± 0.22 |
| CCAUAGCAAUAUUACGUUAA | -3.44 ± 0.34 | -3.04 ± 0.38 |
| CCAUAGCAAUAUUACGUUUU | -3.58 ± 0.16 | -2.75 ± 0.17 |
| CCCAAGCAAUAUUACGAAAC | -2.72 ± 0.22 | -2.04 ± 0.27 |
| CCCAAGCAAUAUUACGACAU | -3.83 ± 0.021 | -2.8 ± 0.037 |
| CCCAAGCAAUAUUACGAGCG | -2.62 ± 0.12 | -2 ± 0.13 |
| CCCAAGCAAUAUUACGAUGC | -4.67 ± 0.29 | -2.15 ± 0.24 |
| CCCAAGCAAUAUUACGCAAC | -3.16 ± 0.26 | -2.71 ± 0.38 |
| CCCAAGCAAUAUUACGCAAG | -3.34 ± 0.19 | -2.86 ± 0.22 |
| CCCAAGCAAUAUUACGCACG | -2.65 ± 0.17 | -2.84 ± 0.43 |
| CCCAAGCAAUAUUACGCCCA | -2.33 ± 0.24 | -2.46 ± 0.25 |
| CCCAAGCAAUAUUACGCCGA | -2.01 ± 0.32 | – |
| CCCAAGCAAUAUUACGGAAA | -2.22 ± 0.15 | -3.47 ± 0.3 |
| CCCAAGCAAUAUUACGGAGU | -3.37 ± 0.11 | -2.47 ± 0.11 |
| CCCAAGCAAUAUUACGGAUG | -3.07 ± 0.1 | -2.49 ± 0.11 |
| CCCAAGCAAUAUUACGGCAA | -2.32 ± 0.14 | -2.69 ± 0.16 |
| CCCAAGCAAUAUUACGGCGG | -3.72 ± 0.23 | -2.08 ± 0.21 |
